Test results: PMC12880088

Target: T1, rYeiE (YeiE-Strep-tag II) (Salmonella enterica serotype Typhimurium ATCC14028s) (UniProt Q8ZNK8)
T1 sequence: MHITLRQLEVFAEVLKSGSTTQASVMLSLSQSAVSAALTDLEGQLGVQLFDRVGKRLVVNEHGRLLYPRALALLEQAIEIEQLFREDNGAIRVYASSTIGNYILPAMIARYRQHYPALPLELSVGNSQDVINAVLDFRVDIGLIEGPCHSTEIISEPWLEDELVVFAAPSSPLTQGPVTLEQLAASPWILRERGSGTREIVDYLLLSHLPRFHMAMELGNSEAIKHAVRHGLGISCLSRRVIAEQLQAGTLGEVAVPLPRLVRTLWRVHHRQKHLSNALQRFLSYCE
Assay: EMSA
Settings: 150 mM KCl, 0.1 mM DTT, 0.1 mM EDTA, 10 mM Tris pH 7.4, 20 min at room temperature; 6% native PAGE, SYBR Green

Sequence: GTTGAACCGCTTTTCAGTACTTCAGCAAACACTTCAAGTTGTCGTAGCGTAATATGCATAGTCGTATCCCACCGATAGCGTTTCACTTACCACTTATAAAGATTAATTATAAATATATAATCAATTTTATTTTTAAACCAGATCACCGTAACCTTATTGTCCATATACAGGAGAAGGTTATGACAGAACTCACCTTGCAGAATCATCGTCGTACAATGTGGCATTTTATACCGGGGCTCGCTCTGAGCGCCGTCATTACAGGAGTCGCCCTGTGGGGCGGCGCTATCCCTGCCGTTGCA (double strand) [PyeiE]
- binding: binds
